Measurements from article PMC12800137.

Molecular target: E4F1 (UniProt Q66K89)
Assay: co-IP, immunoblot
Settings: reference: PA28γ wild type; sites T23

binding against the reference: weaker
Substance: PA28γ (from UniProt P61289) T23A
